Residue numbers refer to the chain shown, from its start. Numbers in names are those of the source.
T1: PUF4 RNA-binding domain (Saccharomyces cerevisiae, UniProt P25339 537-888)
T1 sequence: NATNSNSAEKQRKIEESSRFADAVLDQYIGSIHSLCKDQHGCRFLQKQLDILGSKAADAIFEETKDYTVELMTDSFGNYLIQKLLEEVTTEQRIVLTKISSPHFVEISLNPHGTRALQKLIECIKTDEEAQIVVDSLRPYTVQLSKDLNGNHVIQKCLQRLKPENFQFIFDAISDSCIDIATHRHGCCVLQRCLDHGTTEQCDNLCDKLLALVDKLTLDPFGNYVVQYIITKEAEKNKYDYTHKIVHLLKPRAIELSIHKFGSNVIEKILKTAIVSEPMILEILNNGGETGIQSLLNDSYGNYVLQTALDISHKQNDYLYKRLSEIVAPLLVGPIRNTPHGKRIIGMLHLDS

B1: Ic_S2_P3E.1_K3.1_C3.1_H3.1_A3.1_F3.1_[T7G]_[A8C]_T3.1 (ssRNA)
RNA: UUUGAUUAAUAUGAUAUCGUUCUUUCUUGUAUAGCUUCUUUCUCGAUAUCAUAUUAAUCUUU
B2: Ic_S2_P3E.1_K3.1_C3.1_H3.1_A3.1_F3.1_[T7G]_[A8T]_T3.1 (ssRNA)
RNA: B1 RNA with C35U
B3: Ic_S2_P3E.1_K3.1_C3.1_H3.1_A3.1_F3.1_[T7C]_[A8G]_T3.1 (ssRNA)
RNA: B1 RNA with G34C, C35G

Target: T1, PUF4 RNA-binding domain
Assay: Mg; RNA-MaP; 20 mM Na-HEPES pH 7.4, 30 mM KOAc, 0.75 mM MgCl2, 0.1% Tween-20, 5% glycerol, 0.1 mg/mL BSA, 2 mM DTT; 25 C; 0.0125-409.6 nM protein
Conditions: tags: N-His6-TEV cleaved; C-SNAP kept, Cy3B-labelled; label: tethered on chip by stalled RNA polymerase

Row | Binder | Kd
1 | UCUCUUCUUGUAUAUAUCUCUAUCUCUU (ssRNA) [Ie_S1_P3E.2_K3.1_C3.2_H3.1_A3.1_F3.1_[+8TCTC]_T3.2] | 5.63 nM
2 | UCUCUUUGCCCUUAUAUUAUCUCUU (ssRNA) [Ie_S1_P4E.1_K4.1_C4.1_H4.1_[+2CCCT]_A4.1_F4.1_T4.1] | 1080 nM
3 | UCUCUUUCCCGUAUAUUAUCUCUU (ssRNA) [Ie_S1_P4E.1_K4.1_C4.1_H4.1_[+1CCC]_A4.1_F4.1_T4.1] | 22.1 nM
4 | B1 | 109 nM
5 | B2 | 25.9 nM
6 | B3 | 35.1 nM
7 | UCUCUUUGUUCUAUAUUAUCUCUU (ssRNA) [Ie_S1_P4E.1_K4.1_C4.1_H4.1_[+3TCT]_A4.1_F4.1_T4.1] | 27.2 nM
8 | UCUCUUCUUGUAUAUACCCUUUAUCUCUU (ssRNA) [Ie_S1_P3E.2_K3.1_C3.2_H3.1_A3.1_F3.1_[+8CCCTT]_T3.2] | 9.52 nM
9 | UCUCUUUGCUCUUAUAUUAUCUCUU (ssRNA) [Ie_S1_P4E.1_K4.1_C4.1_H4.1_[+2CTCT]_A4.1_F4.1_T4.1] | 984 nM
10 | UCUCUUUUUGUAUAUUAUCUCUU (ssRNA) [Ie_S1_P4E.1_K4.1_C4.1_H4.1_[+1TT]_A4.1_F4.1_T4.1] | 0.914 nM
11 | UCUCUUUGCUCUCUAUAUUAUCUCUU (ssRNA) [Ie_S1_P4E.1_K4.1_C4.1_H4.1_[+2CTCTC]_A4.1_F4.1_T4.1] | 733 nM
12 | UCUCUUCUUGUAUAUACCCUUAUCUCUU (ssRNA) [Ie_S1_P3E.2_K3.1_C3.2_H3.1_A3.1_F3.1_[+8CCCT]_T3.2] | 12.3 nM
13 | UCUCUUCUUGUAUAUAUUCCUAUCUCUU (ssRNA) [Ie_S1_P3E.2_K3.1_C3.2_H3.1_A3.1_F3.1_[+8TTCC]_T3.2] | 6.86 nM
14 | UCUCUUCUUGUAUAUACUCUCUAUCUCUU (ssRNA) [Ie_S1_P3E.2_K3.1_C3.2_H3.1_A3.1_F3.1_[+8CTCTC]_T3.2] | 11.7 nM
15 | UCUCUUUGUUCUCUAUAUUAUCUCUU (ssRNA) [Ie_S1_P4E.1_K4.1_C4.1_H4.1_[+3TCTCT]_A4.1_F4.1_T4.1] | 49.6 nM
16 | UCUCUUCUUGUAUAUAUUCCUUAUCUCUU (ssRNA) [Ie_S1_P3E.2_K3.1_C3.2_H3.1_A3.1_F3.1_[+8TTCCT]_T3.2] | 6.43 nM
17 | UCUCUUUGUCUCUAUAUUAUCUCUU (ssRNA) [Ie_S1_P4E.1_K4.1_C4.1_H4.1_[+3CTCT]_A4.1_F4.1_T4.1] | 121 nM
18 | UCUCUUUGUCUCAUAUUAUCUCUU (ssRNA) [Ie_S1_P4E.1_K4.1_C4.1_H4.1_[+3CTC]_A4.1_F4.1_T4.1] | 37.3 nM
19 | UCUCUUUCUUGUAUAUUAUCUCUU (ssRNA) [Ie_S1_P4E.1_K4.1_C4.1_H4.1_[+1CTT]_A4.1_F4.1_T4.1] | 0.599 nM
20 | UCUCUUUGUUUCCUAUAUUAUCUCUU (ssRNA) [Ie_S1_P4E.1_K4.1_C4.1_H4.1_[+3TTCCT]_A4.1_F4.1_T4.1] | 58.7 nM
21 | UCUCUUUGUAUAGUUAUCUCUU (ssRNA) [Ib_S1_P5E.1_K5.1_C5.1_H5.1_A5.1_[T6A]_[A7G]_F5.1_T5.1] | 7.36 nM

Row | Binder | Kd
22 | UCUCUUUGUUUCCAUAUUAUCUCUU (ssRNA) [Ie_S1_P4E.1_K4.1_C4.1_H4.1_[+3TTCC]_A4.1_F4.1_T4.1] | 83.7 nM
23 | UCUCUUUGUUUUAUAUUAUCUCUU (ssRNA) [Ie_S1_P4E.1_K4.1_C4.1_H4.1_[+3TTT]_A4.1_F4.1_T4.1] | 32.9 nM
24 | UCUCUUUUUCGUAUAUUAUCUCUU (ssRNA) [Ie_S1_P4E.1_K4.1_C4.1_H4.1_[+1TTC]_A4.1_F4.1_T4.1] | 20.9 nM
25 | UCUCUUUGUUCCUAUAUUAUCUCUU (ssRNA) [Ie_S1_P4E.1_K4.1_C4.1_H4.1_[+2TTCC]_A4.1_F4.1_T4.1] | 101 nM
26 | UCUCUUUUUCCUGUAUAUUAUCUCUU (ssRNA) [Ie_S1_P4E.1_K4.1_C4.1_H4.1_[+1TTCCT]_A4.1_F4.1_T4.1] | 1.18 nM
27 | UCUCUUUGCUCUAUAUUAUCUCUU (ssRNA) [Ie_S1_P4E.1_K4.1_C4.1_H4.1_[+2CTC]_A4.1_F4.1_T4.1] | 583 nM
28 | UCUCUUUCUCUGUAUAUUAUCUCUU (ssRNA) [Ie_S1_P4E.1_K4.1_C4.1_H4.1_[+1CTCT]_A4.1_F4.1_T4.1] | 0.881 nM
29 | UCUCUUUUUCCGUAUAUUAUCUCUU (ssRNA) [Ie_S1_P4E.1_K4.1_C4.1_H4.1_[+1TTCC]_A4.1_F4.1_T4.1] | 36.3 nM
30 | UCUCUUUGCCUUAUAUUAUCUCUU (ssRNA) [Ie_S1_P4E.1_K4.1_C4.1_H4.1_[+2CCT]_A4.1_F4.1_T4.1] | 1330 nM
31 | UCUCUUUGCCUCUUAUAUUAUCUCUU (ssRNA) [Ie_S1_P4E.1_K4.1_C4.1_H4.1_[+2CCTCT]_A4.1_F4.1_T4.1] | 2130 nM
32 | UCUCUUUGUCCUAUAUUAUCUCUU (ssRNA) [Ie_S1_P4E.1_K4.1_C4.1_H4.1_[+2TCC]_A4.1_F4.1_T4.1] | 40.4 nM
33 | UCUCUUUGUAUUAUUAUCUCUU (ssRNA) [If_S1_P5E.1_K5.1_C5.1_H5.1_A5.1_F5.1_T5.1] | 4.68 nM
34 | UCUCUUUUCUCUGUAUAUUAUCUCUU (ssRNA) [Ie_S1_P4E.1_K4.1_C4.1_H4.1_[+1TCTCT]_A4.1_F4.1_T4.1] | 0.586 nM
35 | UCUCUUUGUCUUAUAUUAUCUCUU (ssRNA) [Ie_S1_P4E.1_K4.1_C4.1_H4.1_[+2TCT]_A4.1_F4.1_T4.1] | 45.9 nM
36 | UCUCUUUGUAUCUAUUAUCUCUU (ssRNA) [Ie_S1_P5E.1_K5.1_C5.1_H5.1_A5.1_[+5C]_F5.1_T5.1] | 13.7 nM
37 | UCUCUUUCUCUCGUAUAUUAUCUCUU (ssRNA) [Ie_S1_P4E.1_K4.1_C4.1_H4.1_[+1CTCTC]_A4.1_F4.1_T4.1] | 27.9 nM
38 | UCUCUUUGCCUCUAUAUUAUCUCUU (ssRNA) [Ie_S1_P4E.1_K4.1_C4.1_H4.1_[+2CCTC]_A4.1_F4.1_T4.1] | 1010 nM
39 | UCUCUUUGUUCAUAUUAUCUCUU (ssRNA) [Ie_S1_P4E.1_K4.1_C4.1_H4.1_[+3TC]_A4.1_F4.1_T4.1] | 134 nM
40 | UCUCUUUUCUCGUAUAUUAUCUCUU (ssRNA) [Ie_S1_P4E.1_K4.1_C4.1_H4.1_[+1TCTC]_A4.1_F4.1_T4.1] | 19.7 nM
41 | UCUCUUUGUCUCUCAUAUUAUCUCUU (ssRNA) [Ie_S1_P4E.1_K4.1_C4.1_H4.1_[+3CTCTC]_A4.1_F4.1_T4.1] | 948 nM
42 | UCUCUUUGUCUAUAUUAUCUCUU (ssRNA) [Ie_S1_P4E.1_K4.1_C4.1_H4.1_[+2TC]_A4.1_F4.1_T4.1] | 82.9 nM

Row | Binder | Kd
43 | UCUCUUUGUUUAUAUUAUCUCUU (ssRNA) [Ie_S1_P4E.1_K4.1_C4.1_H4.1_[+2TT]_A4.1_F4.1_T4.1] | 60.9 nM
44 | UCUCUUUGCUUAUAUUAUCUCUU (ssRNA) [Ie_S1_P4E.1_K4.1_C4.1_H4.1_[+2CT]_A4.1_F4.1_T4.1] | 870 nM
45 | UCUCUUUGUACUUAUUAUCUCUU (ssRNA) [Ie_S1_P5E.1_K5.1_C5.1_H5.1_[+4C]_A5.1_F5.1_T5.1] | 14.3 nM
46 | UCUCUUUUGUAUAUUAUCUCUU (ssRNA) [Ie_S1_P4E.1_K4.1_C4.1_H4.1_[+1T]_A4.1_F4.1_T4.1] | 0.567 nM
47 | UCUCUUUGUCUCUUAUAUUAUCUCUU (ssRNA) [Ie_S1_P4E.1_K4.1_C4.1_H4.1_[+2TCTCT]_A4.1_F4.1_T4.1] | 134 nM
48 | UCUCUUUCCUCUGUAUAUUAUCUCUU (ssRNA) [Ie_S1_P4E.1_K4.1_C4.1_H4.1_[+1CCTCT]_A4.1_F4.1_T4.1] | 0.539 nM
49 | UCUCUUUCUGUAUAUUAUCUCUU (ssRNA) [Ie_S1_P4E.1_K4.1_C4.1_H4.1_[+1CT]_A4.1_F4.1_T4.1] | 0.72 nM
50 | UCUCUUUGUUCUCAUAUUAUCUCUU (ssRNA) [Ie_S1_P4E.1_K4.1_C4.1_H4.1_[+3TCTC]_A4.1_F4.1_T4.1] | 103 nM
51 | UCUCUUUCCCUGUAUAUUAUCUCUU (ssRNA) [Ie_S1_P4E.1_K4.1_C4.1_H4.1_[+1CCCT]_A4.1_F4.1_T4.1] | 1.2 nM
52 | UCUCUUUGCUAUAUUAUCUCUU (ssRNA) [Ie_S1_P4E.1_K4.1_C4.1_H4.1_[+2C]_A4.1_F4.1_T4.1] | 107 nM
53 | UCUCUUUGCCUAUAUUAUCUCUU (ssRNA) [Ie_S1_P4E.1_K4.1_C4.1_H4.1_[+2CC]_A4.1_F4.1_T4.1] | 1390 nM
54 | UCUCUUUUCUGUAUAUUAUCUCUU (ssRNA) [Ie_S1_P4E.1_K4.1_C4.1_H4.1_[+1TCT]_A4.1_F4.1_T4.1] | 0.546 nM
55 | UCUCUUCUUGUAUAUAUUUUAUCUCUU (ssRNA) [Ie_S1_P3E.2_K3.1_C3.2_H3.1_A3.1_F3.1_[+8TTT]_T3.2] | 6.71 nM
56 | UCUCUUUGUAUACUUAUCUCUU (ssRNA) [Ie_S1_P4E.1_K4.1_C4.1_H4.1_A4.1_[+6C]_F4.1_T4.1] | 4.35 nM
57 | UCUCUUUCCCUUGUAUAUUAUCUCUU (ssRNA) [Ie_S1_P4E.1_K4.1_C4.1_H4.1_[+1CCCTT]_A4.1_F4.1_T4.1] | 0.454 nM
58 | UCUCUUUUCGUAUAUUAUCUCUU (ssRNA) [Ie_S1_P4E.1_K4.1_C4.1_H4.1_[+1TC]_A4.1_F4.1_T4.1] | 24.4 nM
59 | UCUCUUUCCUGUAUAUUAUCUCUU (ssRNA) [Ie_S1_P4E.1_K4.1_C4.1_H4.1_[+1CCT]_A4.1_F4.1_T4.1] | 0.583 nM
60 | UCUCUUCUUGUAUAUAUCUCUUAUCUCUU (ssRNA) [Ie_S1_P3E.2_K3.1_C3.2_H3.1_A3.1_F3.1_[+8TCTCT]_T3.2] | 8.49 nM
61 | UCUCUUUGUAUAUUUAUCUCUU (ssRNA) [Ie_S1_P4E.1_K4.1_C4.1_H4.1_A4.1_F4.1_[+8T]_T4.1] | 2.39 nM

— PMC9352680, “A comprehensive thermodynamic model for RNA binding by the Saccharomyces cerevisiae Pumilio protein PUF4”
